The nature of this data set: label from the status in PepcDB records.
For the sequence “MNLFRKISEKLKSYEDWVTEANYYLDEGIYDKAVECYLKALEKKNTNPIDWFNLAYALYHLEKYDSALEAINEALKISPSNIYFAYLKGLIHYKRGEIILAYKYLKKASEKIKNEELFEILGDISVKYGRYEEALKYYLKSYKMANSKNLNALFKAGKIYLLFGDIDKAYDAFNEILQQNPSHECKKIVECMENVVNAINSYEDLNNGLTMIKNKDYIGALKIFNKVLQIDENSDISYYYKSVIAEIFEEYKKALEYIDKSISIFNRSLYYAKKGDILYKLGDEEGAIEAYNKAIKLNSQNPYAYFGLAILYYRKGELEKSSNFFDKVLETYLEELSEEDISALNLYSLIGKAETTGIPKYYHEAMKYVDNLINLENSSRWWYVKGYIYYKLGNYKDAYESFMNALRVNPKDISTLKSLAIVLEKSGKIDEAITTYTKILKIVNSLQFTCEIDNILEKLRSRKPTNLEIPSVLFDIPVMYHKPNITCFYASNLWKYMANNNPIGAYIYLSFIESYISLDEISQMVNDIKSKLSLEMYRYCELIDDYKSDESVLMQIKELLQKLGCML”, the protein production entry is “failed”.
As for “MKMLNRLDLGVPCLRAGFAGEQAFFLAMDGRLHVQQGDQRRVVALHDGDVLSACAAPGQADAAAWLLSAGEDGRVMRAGAGEPDCVASVPNKWVTALAVAADGALAYASGRTVWLAGGGGEAAALPQERPVQALRFSHGGRWLAVAGYDGLALYDRQAGGEPQRLDWKGMPTRVAFSPDDRFVLVATRDAVLHGWRLDTLRHFRMVGYPRAVGSWSWLAGGQWLATDGSAGAVLWPFEGEEGPIGSTPLALGERPDGEVSAVACHPARPWVAVGYADGLMVLESTDGALRRILGQAGRDRVACLAWDRAGARLAYGTPSGACGVIQADTGEEGLEHHHHHH”, the protein production entry is on record as “failed”.
Regarding “YQEPKGELVISAPTMFGRQHVLPVISEFIARYPLIRVRLLLSDRNADLVSDHVDLAVRIGDLADSSMVATRLGTMRIVACAHPALLAKYGEPQRPRDLAALPIIRIESPMPYRGWRFRAAEREDQLINLPPVLSVTTPESA”, the protein production result was “failed”.
For “SREPVDILREQKINAEWALKQQSDKLAAQFDNMDDAYLRERKQDMLQVVRRIHNNLIGQGNELEVADNLFDETVLIANDLSPADTVLFKEQR”, the protein production entry is “failed”.
Regarding “MSPTLSILIPVYKRDCRRLLEELYKQAEELSVGYEIILGDDCSGEPYTSQYIAYEQEGLCRLVSAEENMGAGRLRNRLAEEAQGEQLLILDSDTLPASPDFIERYLRHASGTTVVCGGFVYPPKSTNPLRQRYGAEVESRSAEERARKPHSGFISMAFMIPRKQMLATGFPPNMGMGYEDILFGERLRQAGIPILHIDNPVEHYHCDTAEGFLATTRSYLDNLYCHREELAELVSLLRAYNLLKRLHLMRMVAALWPLIRSSLEKQLTGAKPSLLLFSLYKLLYVASLSLVCAEKS”, the protein production result is “failed”.
Regarding “MRLFAINAGNFKLDGGAMFGVVPKSIWNKLNPADSNNLCTWATRCLLIENGKQLVLIDTGLGDKQDESFFRHYYRDTPQTWDTLLKPYGFHSSDITDVVLTHLHFDHVGGALEKKGDKIVPTFSNARYWSNTRHWDWAVEPNPREKASFLKDNLFPLQESGQLYFVDTQNLPFEWMDFIFVDGHTEQQMLPLITTPAEKKILYAADLLPSAGHIPMPYIMSYDVRPLVSMQEKERVFNQVLAEDWTVFLEHDLSNACISLQQTEKGIRLNNVFQISDFNLEHHHHHH”, the protein production entry was “failed”.
With “MGREIFNRRLPDNYNDFSHSMDNAANGHYFLRVASSNYKRPDGKNVRTVRDVIAEVDQNGVVVDEWRLFDILDPYRDVIMKTLDQGAVCLNIDASQSGHTLSEEDLAALDSSDKFGDIVGSGAGRNWAHVNSVDYDSEDDSIIISSRHQSAIIKIGRDKKVKWILGTPAGWKAPFNAAILTPVDSKGQKIACQDSGCEGDFDWTWTQHTAFKIDSKSKGDILYLSAFDNGDGRGLEQPAMQSMKYSRSVIYKIDQKNKTVQQIWQYGKERGNEWFSPVTSITEYQTDKNSVFVYSATAGGAFDLSVGAFTSLPNPYLEEFKWGEKEPAVEMQIHGARGYQAMPFSLTKALTELEHHHHHH”, the protein production result is on record as “failed”.
For “MEEVKFYVRCYDKIELARMYFPNLSNPVSVAKLRRWMRNCMPLMEELMAGDFHPKMKMFSAREVRLIVRYLGEPDGYVFMHEHADVK”, the protein production entry is given as “failed”.
Consider “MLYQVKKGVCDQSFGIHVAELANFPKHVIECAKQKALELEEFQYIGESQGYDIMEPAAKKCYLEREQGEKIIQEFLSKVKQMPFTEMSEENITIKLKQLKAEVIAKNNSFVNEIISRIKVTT”, for which the protein production entry is given as “failed”.
On to “MFQTGGLIVFYGLLAQTMAQFGGLPVPLDQTLPLNVNPALPLSPTGLAGSLTNALSNGLLSGGLLGILENLPLLDILKPGGGTSGGLLGGLLGKVTSVIPGLNNIIDIKVTDPQLLELGLVQSPDGHRLYVTIPLGIKLQVNTPLVGASLLRLAVKLDITAEILAVRDKQERIHLVLGDCTHSPGSLQISLLDGLGPLPIQGLLDSLTGILNKVLPELVQGNVCPLVNEVLRGLDITLVHDIVNMLIHGLQFVIKV”, for which the protein production entry was “failed”.
To “EKVDLQYAAYEPKKLQSGNKNPLIIWLHGQGEGGTDPDITLLGNKVTALIKEDIQNHFKSGNQKGTYVLTVQAPTYWMDEGDGSNGQGAGTSRYTEVLMDAIKKYVAKIT” belongs “failed”.
On to “MESPHAADPEGIDPQVVELATTIFALARAGDTASLDAYIRAGVPANLTNDQGDTLVMLAAYYGHADTVECLCRHGADVNRLNDRGQSPLAGAVFKDEDAVVKTLLAHGADPTLGQPSAIDTARMFGKEHYLELFDNA”, for which the protein production entry is recorded as “failed”.
Turning to “EDPFQPEIKVRCVCGNSLETDSMIQVIWDELTAFIPCEDPRCHVWQHVGCVILPDKPMDGNPPLPESFYCEICRLT”, the protein production entry is on record as “not failed”.
To “MKHVHGNGLVLGAAAFVFLAAQPVSAQTTQITEVKLNPGNGGLSVVLKTSAGSRPQVFTTKRGKALVADIINTQLRLPQGNNFRQDKPAAGIASVEVVQLDANSIRVIVTGDSDAPTSQPVIRQQDGITLSLTPSTGTTASAPVTPRPPVSTTPPASTPAQTGVVPNVLVPNPQVTIDGKPAQPAGPGQPLSQAPPFLPRAVAPPVGDIAISATDASPSTIDLGTQERVPRLVLRDAPVREVLSLLARAANLNLAYISDGVGGTPAAGGQGISQTISLDIENEPVQDVFNYVLRLSGLEANRSNRTIFVGPKLPNSTRDVVMRNLRLNQVNVGVALNFLVGLGAETAVSRERQVTNVNAVPVGTGVAPITQTQTTTETRVETQRINFQDSNPLLRGLQALGDERTNSLTLIGPPKLVEMAMNQLTQLDIRRRQVVVNVKIIDVNLSNTQDNNASLSFGIGNNYFSSDGGAASLNIGGLNPPSAGNVRNSLNPTVTTNPYSSGNTFLDLTQSVGPVPDTGVDTRNITINNPGGGSITETQGQDLNFVQRRAGISGDPFETGITAVTQGTPNIIRRTTTTDPTTGAVTETTTVTEGTRGSITAALPSLFQYPKRLLANLQAQVTNGNAKILTDPTLIVQEGQTANVKLTQEVVGNITSETTRGDGASTQTVTAEKTDVGLTLAVKIDRIDDNGFVSLSVAPVVKAPQSSAVINVSGNSQTIFLVSERSLNSGMIRLRDGQTLILSGIIQDQDRTSVSKIPILGDIPLIGSLFRKTNRTNERREVIVLLTPQVMDDSQNSSYGYNYSPSPEVRQMLERRGLNTPRR” belongs “failed”.
Regarding “MGHHHHHHSHMNSCILQATVVEAPQLRYTQDNQTPVAEMVVQFPGLSSKDAPARLKVVGWGAVAQELQDRCRLNDEVVLEGRLRINSLLKPDGNREKQTELTVTRVHHLTLDSATGI”, the protein production result is listed as “failed”.
To “RFNPFIHQQDVYVQIDRDGRHLSPGGTEYTLDGYNASGKKEEVTFFAGKELRKNAYLKVKAKGKYVETWEEVKFEDMPDSVQSKLK” belongs “not failed”; to “MMKTMDIIIPREFVSDDQYLLQKLCVVNNDFVKEGEILALIESSKSVIDVTSPADGYVYFFSDEGDIVSVGERLALLASTKEALQVEIENSNKNSQRRKESETKSEDVSLSGVRCSKKALLLMKQHNIDVGAFDGLGMVTAQDVEHYLSSREKAVKATVAPSSVNRQKIIILGGGGHSKVCIDILRQAQSFTIAGILDSIQDIGAEVLGIPVIGRDTMPELLKTRESGISLAVNGIGLIPDHRNRCKLFERLLEAGFHLPNLIHPKASIEPSAKLGEGNQIMAGAIIGSDVTVGNYCLINSGVVVSHDCIIDDHVHLAPGALLAGAVRVGRNSLIGMGVTIYAKVTIGSNVVIANGANVFHDVPDNTVVKI”, “failed”.
With “GPGSMYRSRPEPVQGHLFTYYKDPYCKIPVFMMNMDARRCVLWVGGQTESLLSFDYFTNLAEELQGDWAFVQVEVPSGKIGSGPQDHAHDAEDVDDLIGILLRDHCMNEVALFATSTGTQLVFELLENSAHKSSITRVILHGVVCDPENPLFTPEGCAARKEHVEKLMAEGRGEDSLAMLKHYDIPITPARLAGGGFPTLQEAVWNPCIRKEFDVLRRSVGVIKVPLLLMLAHNVQYKPSDEEVGTVLEGVRDHTGCNRVTVSYFNDTCDELRRVLKAAESEHVAAILQFLADEDEFRTETEKNNRIKAAEDEKKRKSVLQVSSFAQAASSVKAS”, the protein production entry was “not failed”.
Consider “MELAVHDATEDGAGYATAASSWVVVEPEFVVDVTDIRSFVQCPRLYYLNKLSGLPLKYPVTKGTIVHEVFGDLLRGRDLEASVAQRVDEAGLELGLLGRSRAEVEADVRDNASAIEGWLQQGRLTDEDEWRSEYTLVSERFGIKGRCDAIRRGMPVELKTGKNTNREPRFHDKVQAACYALMLDEHGVPADTGTLLYTKNAAVDRSEASGDLSPAKEFSIGRGFLEFVVRERNHLAALEASDGPPTGYEADAKCDYCFEQDTCMVVSGRLDQESKAGRIGDPVPAEERAYFDELYDAIEAERGAIHDEYRKLWEQSPDERAADDRAVVGLSPAEQTELPDGRWRLTATRPGSAASKIREGDRVLASDGDPVAGRAEMARVERLDADRVEVTTDEPVSLCRLDVYPSELSVDRMLTALHDAVLKSDQRRTDLLFDRASPRFEGGDHDLIPNNDAQNAAVNRALNAEDFALVHGPPGTGKTYTIATLVQAFVARGDRVLVSAFTNRAVDNALDALRQQGHEDIVRVGTETGVRADMQDLRLDRSGDPGERAAALRSAPVVAATTATCGSRILRELEFDVVLVDEASQLTEPDTLAAINRGARFVLVGDHEQLPPVVRSGGRLSKSLFERLHETYPEASVMLDQQYRMSQRIQAFSSREFYDGQLRPASSEVAGQRLTDVGVDPGGAVHGGVTFYDVPGTDDAHVDPAEADRVADVVTAYVDAGLDPGEIGVIAPFRAQVAEIGRRTPAGVAVDTVDRFQGSSKEVIVVSFVARGTLEGPIFEDHRRVNVALSRAKKSLVLVGDERALRSEPLYDRMIDWADMELEHHHHHH”, for which the protein production result is “failed”.
Consider “MRAAFLIGILAAMGALTQGGSISETVGAGLIDGATITSLAAVAGLLTATGFMAFGIYSGYPVPAAFATTGAMVGVGLSLGGQPVFDTYRRIATFWLLVPPVSGSLAYLTATVLRRDDIPETVGVPLLAGVVGGIVANVQLSIIPSPAGTDQGSLAGFAAMVAGTDIAAVATTLLVAAGSFYYIRRQTQASVDKGIKTFLVVLGSVVAFSSGGSQVGLATGPLENLYRAELGLPGFVLLALGAVGILGGAWMGAPRLLQATSREYAQLGVRRSIAALVPGFIIAQAAIALGIPISFNNIIISGVIGGGLAGGSAGVSRRKIGVTVGFWLITLVTSVVIGFGVYQVLEAALGSQV”, for which the protein production entry was “failed”.
As for “MTDRSEDADGEPAPEDAAGLDDDALDHEFSEGAGFDDPYAGFDLDPPELDVDPDTVDPVDSRVVADTLDERTLDNDAVDADELIDVGLSYMGINRNEQAVDTFERAAQYTDDDNREQEAWVNKGIAHGELEEWDAAVGAHREALFVADDGDFEAAAHTNLAYALWEFGEDEQAYEHAEEAVRVDKRLPQAWYNLGFIENERDRPEQALDALDNAIRLGFQQADVYEEKTRALEALGRDEEAAKVAEQADEIRSQQERELVDER”, the protein production entry is listed as “failed”.

For the origin of these results see a protein production outcome set (Wang et al. 2014).
